{
  "source": "patent US20180022822A1",
  "about": "“NOVEL ANTI-FIBROBLAST ACTIVATION PROTEIN (FAP) BINDING AGENTS AND USES THEREOF” (Mabimmune Diagnostics AG, priority 2016, published 2018)",
  "molecules": {"B1": {"name": "NI-206.20A8: human-derived recombinant anti-FAP antibody; VH SEQ ID NO: 45, VL SEQ ID NO: 47 (antibody, listed as Homo sapiens, V domains shown)", "VH": "EVQLVESGGGLVQPGGSLKLSCAGSGLDLSASAVHWVRQASGKGLEWIGRIRSKPNHYATTYLASVRGRFILSRDDSENTAYLQMNSLRTEDTAVYYCRIGILNSDHWGRGTLVTVSS", "VL": "QSVLTQPPSASGTPGQTVIISCSGSSSNLGRKTLNWYQQLPGAAPKLLIFKNDQRASGVPDRFSASKSGTSASLTISGLQSDDEADYYCGTWDDSLDNWVFGGGTKVTVL"}},
  "key": {"[1]": {"system": "directly coated FAP peptides mixture (cFAP)", "test": "direct ELISA on coated mixture of FAP peptides", "assay_type": "binding, human", "conditions": "peptides 378-392, 622-636, 721-736", "procedure": "(§1) ELISA assays were performed with varying antibody concentrations to validate the binding of the exemplary antibodies of the present invention to FAP and to be able to determine their half maximal effective concentration (EC50). For the exemplary recombinant human NI-206-18H2, NI-206-20A8, NI-206-6D3, ‘NI-206-14C5, NI-206-34C11, NI-206.82C2, NI-206.59B4, NI-206.22F7, NI-206.27E8, NI-206.12G4 and NI-206.17A6 antibodies, 96-well microplates (Costar, Corning, USA) were coated with FAP, with a mixture of the 3 peptides or with BSA (Sigma-Aldrich, Buchs, Switzerland) diluted to a concentration of 5 μg/ml in carbonate ELISA coating buffer (15 mM Na2CO3, 35 mM NaHCO3, pH 9.4) for the direct ELISA. For the capture ELISA, the microplates were coated with mouse anti-His monoclonal antibody (Clontech) diluted to a concentration of 3 μg/ml in PBS, the plates were then blocked, FAP or BSA were diluted to a concentration of 2 μg/ml in PBS and added to the plates to be captured. The binding efficiency of the antibodies was then tested.\n(§2) The EC50 values were estimated by a non-linear regression using GraphPad Prism (San Diego, USA) software. […] The binding of NI-206.12G4 towards sFAP was not tested."}, "[2]": {"target": "T1, directly coated FAP (FAP) (Homo sapiens, UniProt Q12884)", "T1 sequence (Q12884 1-760)": "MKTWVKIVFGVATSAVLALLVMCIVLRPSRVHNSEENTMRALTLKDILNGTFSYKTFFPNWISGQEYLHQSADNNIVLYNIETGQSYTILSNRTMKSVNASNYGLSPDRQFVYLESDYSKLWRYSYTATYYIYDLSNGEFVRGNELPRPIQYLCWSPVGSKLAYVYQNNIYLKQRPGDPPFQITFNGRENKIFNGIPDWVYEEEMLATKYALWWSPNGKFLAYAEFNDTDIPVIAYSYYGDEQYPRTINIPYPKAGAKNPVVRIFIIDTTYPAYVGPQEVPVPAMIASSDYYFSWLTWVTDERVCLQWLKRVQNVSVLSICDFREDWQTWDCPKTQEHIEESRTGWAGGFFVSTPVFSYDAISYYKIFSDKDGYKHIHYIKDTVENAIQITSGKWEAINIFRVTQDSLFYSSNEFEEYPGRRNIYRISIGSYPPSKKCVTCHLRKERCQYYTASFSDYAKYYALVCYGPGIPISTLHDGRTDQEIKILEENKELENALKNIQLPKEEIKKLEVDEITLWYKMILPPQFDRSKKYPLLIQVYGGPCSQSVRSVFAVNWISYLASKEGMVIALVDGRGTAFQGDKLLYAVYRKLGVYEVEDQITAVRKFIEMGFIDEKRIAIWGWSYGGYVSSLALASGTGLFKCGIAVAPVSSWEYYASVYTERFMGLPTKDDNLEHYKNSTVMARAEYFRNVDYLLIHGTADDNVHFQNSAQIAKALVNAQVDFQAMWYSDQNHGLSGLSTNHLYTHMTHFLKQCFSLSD", "test": "direct ELISA on directly coated FAP", "assay_type": "binding", "conditions": "ELISA, varying antibody concentrations", "procedure": "as §1, §2"}, "BSA": {"target": "T2, BSA (Bos taurus, UniProt P02769)", "T2 construct": "purchased Sigma-Aldrich", "T2 sequence (P02769 25-607)": "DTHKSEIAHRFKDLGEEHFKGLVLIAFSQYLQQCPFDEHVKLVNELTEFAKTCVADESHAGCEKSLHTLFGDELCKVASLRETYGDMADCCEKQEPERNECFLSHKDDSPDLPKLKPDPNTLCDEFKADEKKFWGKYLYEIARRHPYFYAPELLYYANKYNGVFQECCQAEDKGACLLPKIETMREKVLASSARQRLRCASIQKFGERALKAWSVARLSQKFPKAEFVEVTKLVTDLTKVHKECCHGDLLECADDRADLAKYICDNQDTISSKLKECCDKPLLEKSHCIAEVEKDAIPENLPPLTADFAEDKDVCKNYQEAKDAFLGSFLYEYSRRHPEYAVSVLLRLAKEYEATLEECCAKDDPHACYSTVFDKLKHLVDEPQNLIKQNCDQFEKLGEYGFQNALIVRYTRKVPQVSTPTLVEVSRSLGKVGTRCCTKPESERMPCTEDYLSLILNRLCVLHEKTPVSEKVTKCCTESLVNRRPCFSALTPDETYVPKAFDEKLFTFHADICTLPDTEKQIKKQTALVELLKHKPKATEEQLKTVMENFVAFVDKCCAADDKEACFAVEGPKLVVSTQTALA", "test": "ELISA control binding to BSA", "design": "species or system bovine", "procedure": "as §1"}, "[3]": {"target": "T3, recombinant human FAP (sFAP, FAP) versus CD26 and unrelated human antigens (A-N) (Homo sapiens, UniProt Q12884)", "T3 sequence (Q12884 26-760 limits assumed)": "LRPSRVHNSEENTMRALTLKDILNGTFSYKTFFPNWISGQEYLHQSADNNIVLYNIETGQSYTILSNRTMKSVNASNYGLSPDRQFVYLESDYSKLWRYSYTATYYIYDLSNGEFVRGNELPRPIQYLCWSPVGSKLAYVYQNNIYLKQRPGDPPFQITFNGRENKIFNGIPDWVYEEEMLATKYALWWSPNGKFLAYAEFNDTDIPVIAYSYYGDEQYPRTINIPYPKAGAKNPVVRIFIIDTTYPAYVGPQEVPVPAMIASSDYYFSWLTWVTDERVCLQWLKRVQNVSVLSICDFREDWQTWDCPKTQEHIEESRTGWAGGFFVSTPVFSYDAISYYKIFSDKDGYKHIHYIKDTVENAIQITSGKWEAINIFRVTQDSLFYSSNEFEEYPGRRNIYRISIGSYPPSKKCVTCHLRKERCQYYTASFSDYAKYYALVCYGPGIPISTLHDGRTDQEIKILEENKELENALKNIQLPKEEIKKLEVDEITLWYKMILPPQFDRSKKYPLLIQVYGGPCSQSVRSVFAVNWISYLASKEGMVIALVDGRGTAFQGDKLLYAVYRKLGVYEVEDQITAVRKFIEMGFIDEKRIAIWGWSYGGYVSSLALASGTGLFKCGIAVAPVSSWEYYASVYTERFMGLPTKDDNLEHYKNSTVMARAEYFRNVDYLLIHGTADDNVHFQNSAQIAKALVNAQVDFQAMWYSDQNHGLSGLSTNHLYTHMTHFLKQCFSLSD", "test": "binding specificity ELISA against FAP versus unrelated human antigens", "conditions": "detection antibody at 20, 4 and 0.8 nM", "procedure": "A mouse anti-6×-histidine tag antibody (Clonetech) was coated at a concentration of 3 μg/ml in PBS to a 96 well ELISA plate, the plates were then blocked with 5% BSA in PBS, and enzymatically active recombinant human FAP with an N-terminus 6× histidine tag was added to the plates to be captured. The binding efficiency of NI-206.82C2, NI-206.18H2, NI-206.20A8 and NI-206.6D3 (at 20 nM, 4 nM, and 0.8 nM) against sFAP and of NI-206.18H2, NI-206.20A8 and NI-206.6D3 against FAP as well was then tested by 1 hour incubation, followed by washing with PBS and detection with an HRP-labelled goat anti-human antibody (Jackson Immunoresearch) using a colormetric assay. To assess NI-206.82C2, NI-206.18H2, NI-206.20A8 and NI-206.6D3 binding other targets, recombinant human CD26 (only in case of NI-206.82C2) and fourteen other unrelated recombinant human proteins (A-N) were individually added to a 96-well ELISA plate in triplicate, and the binding efficacy of NI-206.82C2 was evaluated. (FIG. 7A to D)"}, "captured FAP (sFAP)": {"target": "T4, captured FAP (sFAP) (Homo sapiens, UniProt Q12884)", "T4 sequence (Q12884 1-760)": "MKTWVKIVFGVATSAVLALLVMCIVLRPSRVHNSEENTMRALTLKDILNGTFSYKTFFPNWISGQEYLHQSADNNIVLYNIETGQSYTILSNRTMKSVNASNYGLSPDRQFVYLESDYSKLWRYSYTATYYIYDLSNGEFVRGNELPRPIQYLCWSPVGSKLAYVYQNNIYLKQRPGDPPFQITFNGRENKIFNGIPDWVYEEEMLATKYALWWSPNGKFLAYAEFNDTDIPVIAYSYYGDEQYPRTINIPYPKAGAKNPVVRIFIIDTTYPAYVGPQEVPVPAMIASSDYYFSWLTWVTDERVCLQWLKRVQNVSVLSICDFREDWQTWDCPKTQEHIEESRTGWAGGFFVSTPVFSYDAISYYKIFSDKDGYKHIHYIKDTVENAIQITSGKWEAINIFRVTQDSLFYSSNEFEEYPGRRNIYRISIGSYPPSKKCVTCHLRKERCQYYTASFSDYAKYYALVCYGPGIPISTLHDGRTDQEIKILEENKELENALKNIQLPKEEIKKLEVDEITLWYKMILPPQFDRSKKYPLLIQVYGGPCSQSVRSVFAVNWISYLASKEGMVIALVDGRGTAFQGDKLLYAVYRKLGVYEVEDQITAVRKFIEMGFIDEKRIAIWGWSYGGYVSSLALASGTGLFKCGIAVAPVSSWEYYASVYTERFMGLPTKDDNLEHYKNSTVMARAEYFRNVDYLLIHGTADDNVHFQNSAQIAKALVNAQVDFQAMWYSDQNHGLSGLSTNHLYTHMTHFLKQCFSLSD", "test": "capture ELISA, FAP captured via his-tag with coated anti-His antibody", "assay_type": "binding", "conditions": "ELISA, varying antibody concentrations", "procedure": "as §1, §2"}},
  "data": [
    {"molecule": "B1", "values": [
      {"measurement": "EC50 to the directly coated FAP peptides mixture (cFAP)", "setting": "[1]", "result": "did not show any binding"},
      {"measurement": "binding to the directly coated FAP", "setting": "[2]", "result": "binds less efficiently"},
      {"measurement": "binding to BSA", "setting": "BSA", "result": "does not bind"},
      {"measurement": "colorimetric ELISA signal against FAP versus panel of unrelated human antigens", "setting": "[3]", "result": "significantly greater"},
      {"measurement": "binding to the captured FAP", "setting": "captured FAP (sFAP)", "result": "binds less efficiently"}
    ]}
  ]
}
